{
  "source": "paper doi:10.1101/2023.11.22.568357",
  "about": "(bioRxiv, 2023)",
  "molecules": {"B1": {"name": "LRRC4B(453-576)-hFc (Fc fusion)", "chain": "VSAVDPVAAGGTGSGGGGPGGSGGVGGGSGGYTYFTTVTVETLETQPGEEALQPRGTEKEPPGPTTDGVWGGGRPGDAAGPASSSTTAPAPRSSRPTEKAFTVPITDVTENALKDLDDVMKTTK"}, "B2": {"name": "His-TEV LRRC4B(36-576) (domain or fragment, human, UniProt Q9NT99 36-576, looked up)", "chain": "AGGGGVAVTSAAGGGSPPATSCPVACSCSNQASRVICTRRDLAEVPASIPVNTRYLNLQENGIQVIRTDTFKHLRHLEILQLSKNLVRKIEVGAFNGLPSLNTLELFDNRLTTVPTQAFEYLSKLRELWLRNNPIESIPSYAFNRVPSLRRLDLGELKRLEYISEAAFEGLVNLRYLNLGMCNLKDIPNLTALVRLEELELSGNRLDLIRPGSFQGLTSLRKLWLMHAQVATIERNAFDDLKSLEELNLSHNNLMSLPHDLFTPLHRLERVHLNHNPWHCNCDVLWLSWWLKETVPSNTTCCARCHAPAGLKGRYIGELDQSHFTCYAPVIVEPPTDLNVTEGMAAELKCRTGTSMTSVNWLTPNGTLMTHGSYRVRISVLHDGTLNFTNVTVQDTGQYTCMVTNSAGNTTASATLNVSAVDPVAAGGTGSGGGGPGGSGGVGGGSGGYTYFTTVTVETLETQPGEEALQPRGTEKEPPGPTTDGVWGGGRPGDAAGPASSSTTAPAPRSSRPTEKAFTVPITDVTENALKDLDDVMKTTK"}},
  "key": {"[1]": {"target": "His-TEV LRRC4B (limits not told for Fig. 1G) (human)", "assay": "ELISA"}, "[2]": {"target": "His-TEV LRRC4B(36-576) (human) (UniProt Q9NT99)", "assay": "ELISA"}, "[3]": {"target": "LRRC4B(453-576)-hFc (human) (UniProt Q9NT99)", "assay": "ELISA"}, "[4]": {"target": "LRRC4B(484-576)-hFc (human) (UniProt Q9NT99)", "assay": "ELISA"}, "[5]": {"target": "6xHis-LRRC4B(453–576) (human) (UniProt Q9NT99)", "assay": "SPR"}, "[6]": {"target": "FAM19A5 (wild type, recombinant) (human)", "assay": "ELISA"}, "[7]": {"target": "T1, PTPRF ectodomain (30-1263)-hFc (human, UniProt P10586-1 30-1263)", "T1 sequence (looked up)": "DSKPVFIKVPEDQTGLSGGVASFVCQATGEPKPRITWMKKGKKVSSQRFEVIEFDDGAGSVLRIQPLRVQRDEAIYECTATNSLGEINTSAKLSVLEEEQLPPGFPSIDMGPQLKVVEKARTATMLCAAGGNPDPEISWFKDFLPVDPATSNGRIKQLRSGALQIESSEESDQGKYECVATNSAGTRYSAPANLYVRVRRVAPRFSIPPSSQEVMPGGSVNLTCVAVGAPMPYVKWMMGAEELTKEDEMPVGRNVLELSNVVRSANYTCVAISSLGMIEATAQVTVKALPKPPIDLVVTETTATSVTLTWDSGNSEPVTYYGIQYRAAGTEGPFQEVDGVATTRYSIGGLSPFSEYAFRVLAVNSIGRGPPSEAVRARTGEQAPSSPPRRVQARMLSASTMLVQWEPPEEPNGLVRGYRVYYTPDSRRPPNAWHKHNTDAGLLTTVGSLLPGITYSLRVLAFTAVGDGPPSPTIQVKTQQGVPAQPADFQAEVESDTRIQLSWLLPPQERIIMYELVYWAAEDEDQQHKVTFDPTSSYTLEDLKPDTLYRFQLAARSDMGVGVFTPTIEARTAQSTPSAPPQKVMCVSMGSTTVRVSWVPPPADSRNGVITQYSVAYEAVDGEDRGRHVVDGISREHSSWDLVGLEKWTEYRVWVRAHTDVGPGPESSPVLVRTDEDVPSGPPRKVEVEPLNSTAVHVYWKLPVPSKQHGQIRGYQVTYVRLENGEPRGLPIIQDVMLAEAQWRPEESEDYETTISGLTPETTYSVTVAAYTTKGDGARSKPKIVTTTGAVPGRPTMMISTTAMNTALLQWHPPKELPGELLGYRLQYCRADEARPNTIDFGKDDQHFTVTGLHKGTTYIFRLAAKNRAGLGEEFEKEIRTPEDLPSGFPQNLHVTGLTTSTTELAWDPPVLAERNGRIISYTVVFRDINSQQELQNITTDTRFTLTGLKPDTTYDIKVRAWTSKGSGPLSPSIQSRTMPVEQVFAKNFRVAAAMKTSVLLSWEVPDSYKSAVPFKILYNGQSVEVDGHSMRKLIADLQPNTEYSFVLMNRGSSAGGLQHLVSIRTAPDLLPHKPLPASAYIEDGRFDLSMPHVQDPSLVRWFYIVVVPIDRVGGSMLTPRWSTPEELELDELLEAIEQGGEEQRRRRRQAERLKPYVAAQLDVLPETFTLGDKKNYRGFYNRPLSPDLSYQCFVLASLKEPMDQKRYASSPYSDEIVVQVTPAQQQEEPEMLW", "assay": "ELISA"}},
  "data": [
    {"molecule": "MT FAM19A5(R58A, R59A) (ligand)", "values": [
      {"measurement": "EC50", "setting": "[1]", "value": 0.595, "unit": "nM"}
    ]},
    {"molecule": "FAM19A5 (wild type, recombinant) (ligand)", "values": [
      {"measurement": "EC50", "setting": "[1]", "value": 0.41, "unit": "nM"},
      {"measurement": "IC50", "setting": "[2]", "value": 281, "unit": "nM"},
      {"measurement": "EC50", "setting": "[3]", "value": 0.0685, "unit": "nM"},
      {"measurement": "EC50", "setting": "[4]", "value": 0.112, "unit": "nM"},
      {"measurement": "Kd", "setting": "[5]", "value": 0.0321, "unit": "nM"},
      {"measurement": "koff", "setting": "[5]", "value": 0.000157, "unit": "s⁻¹"},
      {"measurement": "kon", "setting": "[5]", "value": "4.89e+06", "unit": "M⁻¹ s⁻¹"}
    ]},
    {"molecule": "B1", "values": [
      {"measurement": "IC50", "setting": "[6]", "value": 8.1, "unit": "nM"}
    ]},
    {"molecule": "B2", "values": [
      {"measurement": "binding result", "setting": "[7]", "value": "binds"}
    ]}
  ]
}
